Target: T1, P1 adhesin ectodomain (residues Thr29-Asp1521), Mycoplasma pneumoniae (M. pneumoniae, UniProt P11311)
T1 construct: Adhesin P1 of Mycoplasma pneumoniae, gene MPN_141 (synthetic clone, Genscript), residues 29-1521; also called P1 (29-1521); whole P1 ectodomain; source: E. coli B834 (DE3), purified (HisTrap, Superdex 200)
Assay: SEC-MALS; proteins mixed in solution (Fab and P1 ectodomain in equimolecular amounts; Mab with C-domain constructs); Superdex 200 10/300 GL with MALS and refractive index detectors
Settings: both partners purified

T1 sequence (P11311 29-1521): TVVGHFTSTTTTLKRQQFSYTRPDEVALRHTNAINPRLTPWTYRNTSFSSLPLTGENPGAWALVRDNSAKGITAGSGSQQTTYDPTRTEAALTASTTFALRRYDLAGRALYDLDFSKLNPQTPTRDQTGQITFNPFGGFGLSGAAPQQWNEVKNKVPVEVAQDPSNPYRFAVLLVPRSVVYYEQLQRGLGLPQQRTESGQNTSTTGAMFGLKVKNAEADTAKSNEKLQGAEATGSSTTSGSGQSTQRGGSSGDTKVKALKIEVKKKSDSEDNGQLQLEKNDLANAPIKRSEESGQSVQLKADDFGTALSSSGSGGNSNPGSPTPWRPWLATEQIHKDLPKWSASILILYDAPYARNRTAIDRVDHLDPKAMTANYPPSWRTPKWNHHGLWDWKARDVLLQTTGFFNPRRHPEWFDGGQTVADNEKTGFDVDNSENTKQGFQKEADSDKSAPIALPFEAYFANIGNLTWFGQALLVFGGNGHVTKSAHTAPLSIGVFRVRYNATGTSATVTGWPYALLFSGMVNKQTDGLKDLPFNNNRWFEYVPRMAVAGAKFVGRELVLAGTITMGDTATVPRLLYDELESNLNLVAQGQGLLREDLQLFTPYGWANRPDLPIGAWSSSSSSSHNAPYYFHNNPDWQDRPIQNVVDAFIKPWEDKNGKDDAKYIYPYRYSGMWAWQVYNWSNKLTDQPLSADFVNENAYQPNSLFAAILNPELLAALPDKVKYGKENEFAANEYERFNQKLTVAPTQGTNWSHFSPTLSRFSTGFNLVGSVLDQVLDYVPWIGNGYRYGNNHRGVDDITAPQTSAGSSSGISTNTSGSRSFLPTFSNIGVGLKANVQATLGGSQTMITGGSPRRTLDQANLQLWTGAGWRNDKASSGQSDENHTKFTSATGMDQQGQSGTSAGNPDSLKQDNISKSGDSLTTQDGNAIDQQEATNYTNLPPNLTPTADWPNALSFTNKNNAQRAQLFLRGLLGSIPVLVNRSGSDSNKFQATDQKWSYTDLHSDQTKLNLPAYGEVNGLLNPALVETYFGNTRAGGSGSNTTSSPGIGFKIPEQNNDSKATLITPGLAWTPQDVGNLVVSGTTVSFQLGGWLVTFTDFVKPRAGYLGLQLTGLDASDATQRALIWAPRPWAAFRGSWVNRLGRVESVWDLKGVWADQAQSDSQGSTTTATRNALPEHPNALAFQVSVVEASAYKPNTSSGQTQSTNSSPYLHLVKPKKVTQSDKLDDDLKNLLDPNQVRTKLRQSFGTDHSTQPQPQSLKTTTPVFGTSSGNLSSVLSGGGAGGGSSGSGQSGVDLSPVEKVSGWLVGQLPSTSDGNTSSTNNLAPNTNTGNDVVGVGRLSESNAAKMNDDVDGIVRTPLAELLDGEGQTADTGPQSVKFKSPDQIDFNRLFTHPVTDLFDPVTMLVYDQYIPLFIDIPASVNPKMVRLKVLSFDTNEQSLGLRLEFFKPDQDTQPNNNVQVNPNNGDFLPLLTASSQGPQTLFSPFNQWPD

B1: Fab fragment of monoclonal antibody P1/MCA4, with light chain L1 (Fab, V domains shown)
VH: EVQLQQSGPELVKPGTSMKISCKASGYSFTGYTMNWVKQSHGKSLEWIGLINPYNGGTNYNQKFRGTATLTVDKSSSTAYMELLSLTSEDSAVYYCARSNYAYDLLMDYWGQGTSVTVSS
VL: DVLMTQTPLSLPVSLGDQASISCRFSQTIVHSNGATYLEWYLQRPGQSPKLLIYKVSNRFSGVPDRFSGSGSGTDFTLKISRVEAEDLGVYYCFQGSHVPWTFGGGTKLEIK
notes: LC600310 by the order of listing; here the papain fragment of the heavy chain; modelled in PDB 8ROR; light chain L1, the one seen in the cryo-EM map; The Fab preparation is a mixture of two Fabs with one heavy chain and two different light chains (roughly 70% for the most abundant); this molecule is the one with L1; also called Fab(P1/MCA4); P1/MCA4 Fab; source: papain digestion of monoclonal …
binding result: binds

B2: Fab fragment of monoclonal antibody P1/MCA4, with the second light chain (not L1) (Fab, V domains shown)
VH: EVQLQQSGPELVKPGTSMKISCKASGYSFTGYTMNWVKQSHGKSLEWIGLINPYNGGTNYNQKFRGTATLTVDKSSSTAYMELLSLTSEDSAVYYCARSNYAYDLLMDYWGQGTSVTVSS
VL: DVVMTQTPLTLSVTIGQPASISCKSSQSLLDSDGKTYLNCFLQRPGQSPNRLIYLVSRLDSGVPDRFTGSGSGTDFTLKISRVEAEDLGVYYCCQVTQWTFGGGTKLEIK
notes: LC600310 by the order of listing; papain fragment; the second of the two light chains found in P1/MCA4 (not L1); Present in the same Fab preparation as m1; also called Fab(P1/MCA4); P1/MCA4 Fab; source: papain digestion of monoclonal antibody P1/MCA4 (hybridoma), purified (HiTrap Protein G, Superdex 75)
binding result: binds
